Measurements published in article PMC6128908, “Potent PDZ-Domain PICK1 Inhibitors that Modulate Amyloid Beta-Mediated Synaptic Dysfunction” (Scientific Reports, 2018).

Target: PICK1 PDZ domain with an additional C-terminal fusion (NKLQQSAV), oxidized, bCPA-treated dimer (UniProt Q9NRD5)
Experiment: crystal structure; dimeric bCPA-treated PICK1 PDZ with compound 1o; space group P3_(2), one disulfide bridged dimer per asymmetric unit; 1.69 Å

stoichiometry N: 2
Substance: PICK1 PDZ domain with an additional C-terminal fusion (NKLQQSAV), oxidized, bCPA-treated dimer (from UniProt Q9NRD5 1-105) (domain or fragment)
